Experimental findings from publication PMC6987200 (Nature Communications, 2020) are described below.

Data set [1] addresses T1, aquaporin channel (AqpZ) fused to GFP, P60844.
T1 chain: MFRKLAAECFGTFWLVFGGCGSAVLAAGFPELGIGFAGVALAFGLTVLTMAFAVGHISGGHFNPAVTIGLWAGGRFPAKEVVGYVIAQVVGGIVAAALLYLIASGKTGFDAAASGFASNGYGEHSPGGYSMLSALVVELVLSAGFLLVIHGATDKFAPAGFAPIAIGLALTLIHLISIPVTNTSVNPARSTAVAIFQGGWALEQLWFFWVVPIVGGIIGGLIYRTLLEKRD
In words: native MS; AqpZ-GFP after extraction with OGD batches and IMAC; MS buffer 200 mM NH4OAc, pH 6.8, with detergent; modified Q Exactive, HCD 200 V. Particulars: remark: other sources report otherwise.

Data set [2] deals with the molecule itself. In words: native MS; OmpF after detergent exchange from n-octyl-β-D-glucopyranoside to OGDs 1-3 on Superdex 200; MS buffer 200 mM NH4OAc, pH 6.8; HCD 200 V.

Several values for one entry are separate records, joined by “and”; a condition that tells them apart may be missing. Identical values can stand only once.

B1: aquaporin channel (AqpZ) fused to GFP, P60844 1-231 (natural protein)
chain: T1 chain
B1: the stoichiometry N in data set [1] is 4 and 2.

B2: OmpF (natural protein, UniProt P02931 23-362, looked up)
chain: AEIYNKDGNKVDLYGKAVGLHYFSKGNGENSYGGNGDMTYARLGFKGETQINSDLTGYGQWEYNFQGNNSEGADAQTGNKTRLAFAGLKYADVGSFDYGRNYGVVYDALGYTDMLPEFGGDTAYSDDFFVGRVGGVATYRNSNFFGLVDGLNFAVQYLGKNERDTARRSNGDGVGGSISYEYEGFGIVGAYGAADRTNLQEAQPLGNGKKAEQWATGLKYDANNIYLAANYGETRNATPITNKFTNTSGFANKTQDVLLVAQYQFDFGLRPSIAYTKSKAKDVEGIGDVDLVNYFEVGATYYFNKNMSTYVDYIINQIDSDNKLGVGSDDTVAVGIVYQF
notes: OmpF, a bacterial outer membrane protein; also called trimeric OmpF; source: detergent exchanged on Superdex 200
In the case of B2, the “stoichiometry N” value in data set [2] turned out to be 3.

Usually stoichiometry N stands for a count of units in the complex or per binding partner.
